Laboratory results reported in the supplement of paper PMC11908140.

B1: library; numbered along this chain (parent)
chain: MRKPRAAVGSGHRKQAASQEGRQKHAKNNSQAKPSACDGLARQPEEVVLQASVSSYHLFRDVAEVTAFRGSLLSWYDQEKRDLPWRRRAEDEMDLDRRAYAVWVSEVMLQQTQVATVINYYTGWMQKWPTLQDLASASLEEVNQLWAGLGYYSRGRRLQEGARKVVEELGGHMPRTAETLQQLLPGVGRYTAGAIASIAFGQATGVVDGNVARVLCRVRAIGADPSSTLVSQQLWGLAQQLVDPARPGDFNQAAMELGATVCTPQRPLCSQCPVESLCRARQRVEQEQLLASGSLSGSPDVEECAPNTGQCHLCLPPSEPWDQTLGVVNFPRKASRKPPREESSATCVLEQPGALGAQILLVQRPNSGLLAGLWEFPSVTWEPSEQLQRKALLQELQRWAGPLPATHLRHLGEVVHTFSHIKLTYQVYGLALEGQTPVTTVPPGARWLTQEEFHTAAVSTAMKKVFRVYQGQQPGTCMGSKRSQVSSPCSRKKPRMGQQVLDNFFRSHISTDAHSLNSAAQ

Variants of: B1
Assay: 8OG:A repair function score (normalized; synonymous = 0, nonsense = -1) (normalized log-likelihood score); higher = more repair activity (WT-like)
Conditions: with 8OG:A DNA repair reporter (GFP) in HEK-293 MUTYH KO cells
Summary of the method: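 Lentiviral MUTYH cDNA NNN codon-scan libraries were expressed in MUTYH knockout HEK-293 cells with 10 pg/ml doxycycline, and the cells received an 8OG:A GFP repair reporter together with mCherry. At 72 h, viable mCherry+ cells went into GFP+ (repair) or GFP− bins, three replicates per tile, before tile amplicons were sequenced. A repair function score was then built from per-tile Rosace fitness scores, anchored on the synonymous and nonsense distributions. Synonymous medians sat at 0 and nonsense at -1, and variants under 300 counts per million at the start were left out.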
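Also: cells sorted at 72 h after reporter transfection.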

Variant | 8OG:A repair function score
MRKPRAAVGSGHRKQAASQEGRQKHAKNNSQAKPSACDGLARQPEEVVLQASVSSYHLFRDVAEVTAFRGSLLSWYDQEKRDLPWRRRAEDEMDLDRRAYAVWVSEVMLQQTQVATVINYYTGWMQKWPTLQDLASASLEEVNQLWAGLGYYSRGRRLQEGARKVVEELGGHMPRTAETLQQLLPGVGRYTAGAIASIAFGQATGVVDGNVARVLCRVRAIGADPSSTLVSQQLWGLAQQLVDPARPGDFNQAAMELGATVCTPQRPLCSQCPVESLCRARQRVEQEQLLASGSLSGSPDVEECAPNTGQCHLCLPPSEPWDQTLGVVNFPRKASRKPPREESSATCVLEQPGALGAQILLVQRPNSGLLAGLWEFPSVTWEPSEQLQRKALLVELQRWAGPLPATHLRHLGEVVHTFSHIKLTYQVYGLALEGQTPVTTVPPGARWLTQEEFHTAAVSTAMKKVFRVYQGQQPGTCMGSKRSQVSSPCSRKKPRMGQQVLDNFFRSHISTDAHSLNSAAQ [Q394V] | -0.209
MRKPRAAVGSGHRKQAASQEGRQKHAKNNSQAKPSACDGLARQPEEVVLQASVSSYHLFRDVAEVTAFRGSLLSWYDQEKRDLPWRRRAEDEMDLDRRAYAVWVSEVMLQQTQVATVINYYTGWMQKWPTLQDLASASLEEVNQLWAGLGYYSRGRRLQEGARKVVEELGGHMPRTAETLQQLLPGVGRYTAGAIASIAFGQATGVVDGNVARVLCRVRAIGADPSSTLVSQQLWGLAQQLVDPARPGDFNQAAMELGATVCTPQRPLCSQCPVESLCRARQRVEQEQLLASGSLSGSPDVEECAPNTGQCHLCLPPSEPWDQTLGVVNFPRKASRKPPREESSANCVLEQPGALGAQILLVQRPNSGLLAGLWEFPSVTWEPSEQLQRKALLQELQRWAGPLPATHLRHLGEVVHTFSHIKLTYQVYGLALEGQTPVTTVPPGARWLTQEEFHTAAVSTAMKKVFRVYQGQQPGTCMGSKRSQVSSPCSRKKPRMGQQVLDNFFRSHISTDAHSLNSAAQ [T346N] | -0.262
MRKPRAAVGSGHRKQAASQEGRQKHAKNNSQAKPSACDGGARQPEEVVLQASVSSYHLFRDVAEVTAFRGSLLSWYDQEKRDLPWRRRAEDEMDLDRRAYAVWVSEVMLQQTQVATVINYYTGWMQKWPTLQDLASASLEEVNQLWAGLGYYSRGRRLQEGARKVVEELGGHMPRTAETLQQLLPGVGRYTAGAIASIAFGQATGVVDGNVARVLCRVRAIGADPSSTLVSQQLWGLAQQLVDPARPGDFNQAAMELGATVCTPQRPLCSQCPVESLCRARQRVEQEQLLASGSLSGSPDVEECAPNTGQCHLCLPPSEPWDQTLGVVNFPRKASRKPPREESSATCVLEQPGALGAQILLVQRPNSGLLAGLWEFPSVTWEPSEQLQRKALLQELQRWAGPLPATHLRHLGEVVHTFSHIKLTYQVYGLALEGQTPVTTVPPGARWLTQEEFHTAAVSTAMKKVFRVYQGQQPGTCMGSKRSQVSSPCSRKKPRMGQQVLDNFFRSHISTDAHSLNSAAQ [L40G] | 0.0939
MRKPRAAVGSGHRKQAASQEGRQKHAKNNSQAKPSACDGLARQPEEVVLQASVSSYHLFRDVAEVTAFRGSLLSWYDQEKRDLPWRRRAEDEMDLDRRAYAVWVSEVMLQQTQVATVINYYTGWMQKWPTLQDLASASLEEVNQLWAGLGYYSRGRRLQEGARKVVEELGGHMPRTAETLQQLLPGVGRYTAGAIASIAFGQATGVVDGNVARVLCRVRAIGADPSSTLVSYQLWGLAQQLVDPARPGDFNQAAMELGATVCTPQRPLCSQCPVESLCRARQRVEQEQLLASGSLSGSPDVEECAPNTGQCHLCLPPSEPWDQTLGVVNFPRKASRKPPREESSATCVLEQPGALGAQILLVQRPNSGLLAGLWEFPSVTWEPSEQLQRKALLQELQRWAGPLPATHLRHLGEVVHTFSHIKLTYQVYGLALEGQTPVTTVPPGARWLTQEEFHTAAVSTAMKKVFRVYQGQQPGTCMGSKRSQVSSPCSRKKPRMGQQVLDNFFRSHISTDAHSLNSAAQ [Q232Y] | -0.106
MRKPRAAVGSGHRKQAASQEGRQKHAKNNSQAKPSACDGLARQPEEVVLQASVSSYHLFRDVAEVTAFRGSLLSWYDQEKRDLPWRRRAEDEMDLDRRAYAVWVSEVMLQQTQVATVINYYTGWMQKWPTLQDLASASLEEVNQLWAGLGYYSRGRRLQEGARKVVEELGGHMPRTAETLQQLAPGVGRYTAGAIASIAFGQATGVVDGNVARVLCRVRAIGADPSSTLVSQQLWGLAQQLVDPARPGDFNQAAMELGATVCTPQRPLCSQCPVESLCRARQRVEQEQLLASGSLSGSPDVEECAPNTGQCHLCLPPSEPWDQTLGVVNFPRKASRKPPREESSATCVLEQPGALGAQILLVQRPNSGLLAGLWEFPSVTWEPSEQLQRKALLQELQRWAGPLPATHLRHLGEVVHTFSHIKLTYQVYGLALEGQTPVTTVPPGARWLTQEEFHTAAVSTAMKKVFRVYQGQQPGTCMGSKRSQVSSPCSRKKPRMGQQVLDNFFRSHISTDAHSLNSAAQ [L184A] | -0.718
MRKPRAAVGSGHRKQAASQEGRQKHAKNNSQAKPSACDGLARQPEEVVLQASVSSYHLFRDVAEVTAFRGSLLSWYDQEKRDLPWRRRAEDEMDLCRRAYAVWVSEVMLQQTQVATVINYYTGWMQKWPTLQDLASASLEEVNQLWAGLGYYSRGRRLQEGARKVVEELGGHMPRTAETLQQLLPGVGRYTAGAIASIAFGQATGVVDGNVARVLCRVRAIGADPSSTLVSQQLWGLAQQLVDPARPGDFNQAAMELGATVCTPQRPLCSQCPVESLCRARQRVEQEQLLASGSLSGSPDVEECAPNTGQCHLCLPPSEPWDQTLGVVNFPRKASRKPPREESSATCVLEQPGALGAQILLVQRPNSGLLAGLWEFPSVTWEPSEQLQRKALLQELQRWAGPLPATHLRHLGEVVHTFSHIKLTYQVYGLALEGQTPVTTVPPGARWLTQEEFHTAAVSTAMKKVFRVYQGQQPGTCMGSKRSQVSSPCSRKKPRMGQQVLDNFFRSHISTDAHSLNSAAQ [D96C] | -0.291
